Experimental data from the Human Domainome abundance scans (Beltran et al. 2025).
± gives the uncertainty stated by the source.

B1: Membrane-associated guanylate kinase, WW and PDZ domain-containing protein 2, residues 296 to 340; numbered along this chain, Q86UL8 (parent)
chain: EDNEEPDPLPDNWEMAYTEKGEVYFIDHNTKTTSWLDPRLAKKAK
B2: Zinc finger MYM-type protein 3, residues 405 to 444; numbered along this chain, Q14202 (parent)
chain: DATRCSICQKTGEVLHEVSNGSVVHRLCSDSCFSKFRANK

Variants of: B1
Test: abundance fitness (aPCA) (normalised: wild type 0, dead -1); higher = more abundant; growth selection in yeast, the domain comes from the species named
Details: Homo sapiens

Abundance fitness, by site and new letter:
K45: R 0.199 ± 0.23 | E -0.022 ± 0.098 | W -0.01 ± 0.087 | V 0.209 ± 0.28 | G 0.081 ± 0.067 | S 0.076 ± 0.074 | Q 0.1 ± 0.21
L36: H -0.298 ± 0.17 | S -0.125 ± 0.045 | C 0.153 ± 0.12 | G -0.198 ± 0.057 | A -0.117 ± 0.067 | E -0.111 ± 0.079 | W -0.078 ± 0.087 | V 0.025 ± 0.042 | N -0.186 ± 0.09 | T -0.127 ± 0.061 | D -0.227 ± 0.12 | F -0.184 ± 0.11 | K -0.012 ± 0.054 | R -0.051 ± 0.044 | M -0.053 ± 0.078 | I 0.086 ± 0.14 | P -0.776 ± 0.099
T32: V -0.111 ± 0.045 | Q -0.199 ± 0.067 | W -0.325 ± 0.073 | N -0.353 ± 0.088 | R -0.269 ± 0.05 | S -0.08 ± 0.064
A41: R -0.058 ± 0.077 | L -0.297 ± 0.29 | G 0.138 ± 0.12 | F -0.113 ± 0.085
K43: T -0.043 ± 0.12 | A 0.062 ± 0.085 | G 0.066 ± 0.047 | W -0.2 ± 0.075 | L -0.113 ± 0.053 | N -0.324 ± 0.42 | F -0.142 ± 0.093 | R 0.023 ± 0.063 | I -0.139 ± 0.48 | D 0.029 ± 0.12 | V 0.023 ± 0.094
T33: A -0.438 ± 0.048 | E -0.655 ± 0.06 | K -0.492 ± 0.047 | L -0.635 ± 0.075 | G -0.776 ± 0.043 | N -0.341 ± 0.077 | W -0.763 ± 0.056 | I -0.507 ± 0.11 | D -0.848 ± 0.067 | S -0.236 ± 0.045 | Q -0.637 ± 0.068 | P -0.841 ± 0.074 | V -0.272 ± 0.046 | C 0.021 ± 0.063 | M -0.488 ± 0.08
R39: G -0.46 ± 0.06 | H -0.419 ± 0.13 | W -0.607 ± 0.059 | M -0.599 ± 0.056 | Q -0.497 ± 0.054 | C -0.478 ± 0.08 | K -0.411 ± 0.058 | P -0.633 ± 0.069 | S -0.395 ± 0.044 | T -0.366 ± 0.1 | Y -0.769 ± 0.15 | L -0.63 ± 0.046 | V -0.52 ± 0.045 | A -0.514 ± 0.049 | N -0.289 ± 0.15
D37: T -0.675 ± 0.055 | W -0.671 ± 0.045 | V -0.595 ± 0.048 | K -0.246 ± 0.065 | P -0.456 ± 0.064 | A -0.431 ± 0.042 | G -0.51 ± 0.047 | F -0.846 ± 0.14 | E -0.569 ± 0.073 | M -0.533 ± 0.071 | I -0.832 ± 0.075 | Q -0.607 ± 0.087 | N -0.184 ± 0.4 | L -0.699 ± 0.042 | Y -0.697 ± 0.13 | R -0.152 ± 0.039 | H -0.623 ± 0.2 | S -0.456 ± 0.041
P38: V -0.979 ± 0.26
S34: A -0.43 ± 0.064 | C -0.181 ± 0.1 | W -0.784 ± 0.26 | G -0.463 ± 0.076 | L -1.14 ± 0.15 | V -0.758 ± 0.12 | E -0.826 ± 0.12 | R -0.629 ± 0.073
A44: R -0.076 ± 0.056 | L -0.111 ± 0.063 | V -0.009 ± 0.064 | W -0.118 ± 0.087 | E 0.07 ± 0.064
L40: R -0.002 ± 0.053 | A 0.059 ± 0.068 | T 0.012 ± 0.11 | W -0.133 ± 0.059 | E 0.034 ± 0.088 | Q 0.024 ± 0.083 | S -0.022 ± 0.057 | N 0.117 ± 0.1 | G 0.076 ± 0.052 | P 0.043 ± 0.056 | V 0.043 ± 0.045 | K 0.091 ± 0.077
K42: Y -0.033 ± 0.11 | E 0.035 ± 0.062 | N 0.032 ± 0.18 | C 0.097 ± 0.077 | T -0.148 ± 0.15 | V 0.079 ± 0.093 | G 0.014 ± 0.046 | D -0.05 ± 0.18 | R 0.021 ± 0.046 | P 0.128 ± 0.066 | M 0.011 ± 0.071 | A 0.085 ± 0.051 | W 0.089 ± 0.094 | L 0.046 ± 0.22
W35: T -0.451 ± 0.089 | R -0.362 ± 0.043 | C -0.527 ± 0.072 | K -0.494 ± 0.078 | S -0.436 ± 0.054 | Y -0.036 ± 0.068 | G -0.523 ± 0.039 | M -0.247 ± 0.054 | A -0.489 ± 0.042 | I -0.492 ± 0.055 | D -0.547 ± 0.1 | P -0.668 ± 0.089 | Q -0.365 ± 0.065 | F -0.083 ± 0.1 | V -0.473 ± 0.063

Variants of: B2
Test: as above
Details: Homo sapiens

Abundance fitness, by site and new letter:
R26: W -0.21 ± 0.061 | A -0.02 ± 0.052 | D -0.606 ± 0.16 | L -0.196 ± 0.055 | M -0.12 ± 0.078
F36: K -0.426 ± 0.1 | M -0.296 ± 0.39 | T -0.176 ± 0.07 | S -0.178 ± 0.064 | W 0.147 ± 0.057 | D -0.082 ± 0.084 | G -0.206 ± 0.051 | I -0.061 ± 0.072
A2: W -0.204 ± 0.08 | H 0.041 ± 0.11 | C 0.305 ± 0.071
D1: G 0.154 ± 0.054 | E 0.331 ± 0.076 | F -0.219 ± 0.11
V18: G -0.42 ± 0.055 | I -0.067 ± 0.11 | R -0.334 ± 0.055 | K -0.267 ± 0.064 | H -0.209 ± 0.1
S19: I -0.11 ± 0.099 | A -0.215 ± 0.058
F33: D -0.016 ± 0.081 | W 0.154 ± 0.06 | R 0.106 ± 0.051 | A 0.134 ± 0.055 | L 0.256 ± 0.054
E13: K -0.049 ± 0.075 | D -0.2 ± 0.091 | C -0.855 ± 0.078 | T -0.111 ± 0.07
N39: L 0.037 ± 0.065 | T 0.112 ± 0.065 | D -0.228 ± 0.13 | M 0.048 ± 0.07 | I -0.022 ± 0.089
L27: N -0.618 ± 0.096 | I -0.129 ± 0.12 | A -0.393 ± 0.059 | G -0.331 ± 0.053 | D -0.569 ± 0.092 | P -0.458 ± 0.078
G12: Q -0.228 ± 0.066 | D -0.311 ± 0.11 | V -0.137 ± 0.062 | R -0.165 ± 0.056
S34: K 0.206 ± 0.068 | R 0.076 ± 0.054 | T 0.125 ± 0.06 | L -0.023 ± 0.061 | Y -1.01 ± 0.24 | I -0.126 ± 0.12
R37: Y -0.283 ± 0.15 | H 0.137 ± 0.086 | L -0.304 ± 0.058 | I -0.512 ± 0.13 | A -0.003 ± 0.056
V23: N 0.14 ± 0.12 | P -0.374 ± 0.076 | S 0.007 ± 0.056 | C -0.937 ± 0.09
C28: I -0.95 ± 0.18 | F -1.09 ± 0.12 | N -0.765 ± 0.11 | R -0.873 ± 0.061 | T -0.853 ± 0.094
R4: L -0.32 ± 0.054 | C -0.012 ± 0.073 | D 0 ± 0.081 | E -0.211 ± 0.067
T11: W -0.627 ± 0.072 | L -0.116 ± 0.066 | H 0.088 ± 0.12 | V -0.452 ± 0.064 | N -0.14 ± 0.089
G21: P -0.392 ± 0.1 | D 0.016 ± 0.083 | K -0.214 ± 0.058 | Y -0.389 ± 0.089 | V -0.611 ± 0.059 | N -0.646 ± 0.21
D30: K -0.109 ± 0.096 | V -0.384 ± 0.062
S29: R -0.684 ± 0.062 | H -0.683 ± 0.16 | A -0.363 ± 0.061 | V -0.596 ± 0.062
V24: T -0.038 ± 0.061 | Y -0.133 ± 0.072 | C -0.206 ± 0.073 | L -0.077 ± 0.051 | E -0.03 ± 0.064 | W -0.292 ± 0.066
K35: P -0.471 ± 0.074 | A 0.119 ± 0.054 | T 0.058 ± 0.066 | D 0.053 ± 0.076
Q9: K -0.05 ± 0.064 | A -0.585 ± 0.072 | L -0.22 ± 0.058 | T -0.195 ± 0.074 | W -0.234 ± 0.066 | C -0.215 ± 0.1
S22: Q -0.001 ± 0.065 | D -0.432 ± 0.1 | C -0.56 ± 0.077
V14: W -0.561 ± 0.066 | T -0.033 ± 0.063 | S -0.185 ± 0.057 | Y -0.461 ± 0.14 | F -0.068 ± 0.063
H25: Y -0.385 ± 0.097 | W -0.247 ± 0.061 | Q -0.038 ± 0.065 | A -0.122 ± 0.055 | E 0.205 ± 0.058
S31: I 0.064 ± 0.15 | K 0.081 ± 0.086 | H -0.16 ± 0.093 | V -0.032 ± 0.056 | C -0.185 ± 0.18 | D 0.094 ± 0.09 | M -0.006 ± 0.072 | G 0.055 ± 0.052 | N -0.089 ± 0.095
K40: V 0.112 ± 0.1 | Y -0.072 ± 0.45 | E 0.077 ± 0.09 | P -0.12 ± 0.17 | G 0.211 ± 0.064
H16: Y -0.466 ± 0.15 | K -0.158 ± 0.075 | P -0.605 ± 0.078 | G -0.306 ± 0.058 | Q -0.053 ± 0.057 | M -0.551 ± 0.074
S6: N -0.218 ± 0.093 | D -0.302 ± 0.091 | F -0.012 ± 0.078
A38: M -0.033 ± 0.094 | N -0.461 ± 0.23 | Y -0.338 ± 0.36 | V -0.233 ± 0.071
C5: F -0.776 ± 0.14 | D -0.79 ± 0.22
N20: A -0.068 ± 0.056 | E 0.055 ± 0.053 | F -0.431 ± 0.1 | K -0.138 ± 0.072 | S -0.069 ± 0.06 | D 0.153 ± 0.079
E17: D -0.251 ± 0.11 | N -0.291 ± 0.11 | G -0.594 ± 0.055 | K -0.073 ± 0.06 | V -0.487 ± 0.058
T3: V -0.388 ± 0.056 | A -0.366 ± 0.057 | I -0.028 ± 0.075 | N 0.025 ± 0.091 | P -0.561 ± 0.067
C8: D -0.895 ± 0.15 | S -0.927 ± 0.081 | F -0.754 ± 0.13 | T -0.61 ± 0.072 | K -0.999 ± 0.097 | N -0.779 ± 0.15 | E -0.85 ± 0.074
C32: Q -0.345 ± 0.079 | S -0.645 ± 0.079 | L -0.676 ± 0.076 | G -0.576 ± 0.054 | R -0.832 ± 0.071 | D -0.301 ± 0.1
I7: P -0.804 ± 0.14 | V -0.037 ± 0.054 | L -0.146 ± 0.054 | R -0.25 ± 0.057 | N 0.209 ± 0.11 | D -0.376 ± 0.07
L15: E -0.227 ± 0.062 | K 0.079 ± 0.065
